# In US20230356187A1 (AMICOGEN, published 2023):
# Changes are numbered by the printed parent chain. In names and notes the source's numbering stands.
# B1: Protein L B3 domain variant EP2(E28G) (designed binder)
# chain: MPKEEVTIKANLIYADGKTQTAEFKGTFGEATAEAYRYADLLAKENGKYTVDVADKGYTLNIKFAGKEKTPEE
# notes: not shown: 6xHis tag
# B2: Protein L B3 domain variant mBF4 (Y13F/E28G/K43P) (designed binder)
# chain: B1 chain with Y14F, K44P
# notes: also called mBF monomer; not shown: 6xHis tag
# B3: Wild-type Protein L B3 domain (other)
# chain: B1 chain with G29E
# notes: also called wB3; wild-type B3 domain; not shown: 6xHis tag
# B4: Protein L B3 domain variant EP1(E28A) (designed binder)
# chain: B1 chain with G29A
# notes: not shown: 6xHis tag
# B5: Protein L B3 domain variant BEP3(E28G/D51V) (designed binder)
# chain: B1 chain with D52V
# notes: not shown: 6xHis tag
# B6: Protein L B3 domain variant EPS1(E28L) (designed binder)
# chain: B1 chain with G29L
# notes: not shown: 6xHis tag
# B7: Protein L B3 domain variant BEP1(E28G/Y13F) (designed binder)
# chain: B1 chain with Y14F
# notes: not shown: 6xHis tag
# B8: Protein L B3 domain variant EPS4(E28G/K43E) (designed binder)
# chain: B1 chain with K44E
# notes: not shown: 6xHis tag
# B9: Protein L B3 domain variant EPS3(E28W) (designed binder)
# chain: B1 chain with G29W
# notes: not shown: 6xHis tag
# B10: Protein L B3 domain variant EPS6(E28G/N60F) (designed binder)
# chain: B1 chain with N61F
# notes: not shown: 6xHis tag
# B11: Protein L B3 domain variant EPS2(E28P) (designed binder)
# chain: B1 chain with G29P
# notes: not shown: 6xHis tag
# B12: Protein L B3 domain variant BEP2(E28G/K43P) (designed binder)
# chain: B1 chain with K44P
# notes: not shown: 6xHis tag
# B13: Protein L B3 domain variant BEP4(E28G/N60E) (designed binder)
# chain: B1 chain with N61E
# notes: not shown: 6xHis tag
# B14: Protein L B3 domain variant EPS5(E28G/D51T) (designed binder)
# chain: B1 chain with D52T
# notes: not shown: 6xHis tag
# Target: T1, IgG(f) protein (Herceptin scFv)
# T1 construct: Polypeptide of the human IgG1-based scFv region (GenBank AWW43726); Expressed from pET29a(+) (NdeI/XhoI) in E. coli and purified on Ni-NTA resin; also called recombinant immunoglobulin G fragment
# Test: binder coupled to NHS-Sepharose in 96-well filter plate; bound IgG(f) eluted and read at OD280 after 0.3 M NaOH; reference set to 100%
# T1 sequence (scFv, as listed by the source): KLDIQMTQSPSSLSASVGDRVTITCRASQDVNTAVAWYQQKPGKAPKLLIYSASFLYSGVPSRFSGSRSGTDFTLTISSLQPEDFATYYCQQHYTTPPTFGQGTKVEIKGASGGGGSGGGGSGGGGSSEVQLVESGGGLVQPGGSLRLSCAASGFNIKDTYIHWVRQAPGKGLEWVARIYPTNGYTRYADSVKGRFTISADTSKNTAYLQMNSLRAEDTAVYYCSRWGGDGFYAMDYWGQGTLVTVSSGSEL
row,Binder,binding result
1,B1,binds

# Target: T1, IgG(f) protein (Herceptin scFv)
# Test: binder coupled to NHS-Sepharose; bound IgG(f) eluted and read at OD280; relative to 0 h (100%), after 5 h in 0.3 M NaOH; reference wB3
# Protocol: The library prepared in Example 5 was purified by the same manner as in Examples <1-3>, and the absorbance over time was measured by the same method as in Example 3 to compare the alkali tolerance. The absorbance over time obtained is shown in FIG. 5 as a relative value to the absorbance (100%) at the beginning (0 h).
row,Binder,fold increase in alkali tolerance (residual scFv binding activity after 5 hours in 0.3 M NaOH) compared to wB3 [fold]
1,B2,~2.7

# Target: T1, IgG(f) protein (Herceptin scFv)
# Test: binder coupled to NHS-Sepharose in 96-well filter plate; bound IgG(f) eluted at pH 2.5 and read at OD280, before and after 0.3 M NaOH
row,Binder,binding result
1,B3,binds
2,B4,binds

# Target: T1, IgG(f) protein (Herceptin scFv)
# Test: binder coupled to NHS-Sepharose in 96-well filter plate; bound IgG(f) eluted and read at OD280 after 0.3 M NaOH
row,Binder,binding result
1,B5,binds
2,B6,binds
3,B7,binds
4,B8,binds
5,B9,binds
6,B10,binds
7,B11,binds
8,B12,binds
9,B13,binds
10,B14,binds
